Data: the DeepSol protein solubility set

Assay: soluble on expression in E. coli; label from the status in PepcDB or PDB records

Question: For “MDDPASYELDPSIAQRVKFNSAGLVPAVVQSTDGEVLMLAWMDAHALAYTIATRKGTYFSRSRNEYWIKGLTSGHTQQVTGLQLDCDGDTVLMTVVQQGGACHTGDRTCFDADVII”, which “soluble on expression in E. coli” value is on record?
Answer: not soluble

Question: For “MDDREGSFVAVRRISQGLERGSVYNSSSAEAVPGSAAWLGRGLSCVCAQRRDSDANSTFDLTPAQEECLQSLQNRIDVAYDSTIPLHQEALRELWKLSFPEEELHGLISEQWKEMGWQGKDPSTDFRGGGFISLENLLYFARNFQKSFQDLLRKQVGDRSVWEYPFAVAGINLTFMLIQMLDLEAVKPRTIVGATFLKFLSENESAFDLLYCIAFKLMDQQWLSMRASYMEFNTVMKSTRRQLERELMLEDIMHLEDLPSYALLNQ”, which “soluble on expression in E. coli” value is on record?
Answer: not soluble

Question: Which “soluble on expression in E. coli” value does the source give for “MDDSDDEYSRSHGETLTFVDPEDDGVSIGNTQDSQFAYEQFSVPTQSSQATDLLPGGTDGTTNDLPFHDVEDDESDSEKSLTEEQQQQKLPEHACRYCGISDPLCVAKCTVCRKWFCNSNDGTSGGHIVHHMVRSQHKEAYTHKDSPCGDTQLECYRCGSKNVFNLGFIPGKKDQVVVIICRTPCASIAFQNDDNWSPEDWKSVIAEKQLLSWIVNVPSEEQVARARKITATQAVRMEELWRDHPEATVDDLNKPGLDREPDHVQLRYVDAHHYSKVFRPLVAIEAEYDRRVKESASQAVGTVRWEQGLRQSVLAFFHLPQFADGVMKLAKGDELRLKHSQTVDGSEWTKIGSVFKIPDNHGDEVGIEIRGAVDKSVMESRIMFTVDVVWNATTFERQYKALAALLNDSKAISPYLYQKLLGHPAEEMMLKFDLPRRLSVAGLPELNSSQMQAVKQVLTRPLSLIQGPPGTGKTVVSATIVYHLVQKTEGNVLVCSPSNIAVDHLAEKIHKTGLKVVRLCARSREHSETTVPYLTLQHQLKVMGGAELQKLIQLKDEAGELEFKDDLRYMQLKRVKEHELLAAADVICCTCSSAADARLSKIRTRTVLIDESTQATEPEILVSIMRGVRQLVLVGDHCQLGPVVICKKAAIAGLSQSLFERLVLLGIRPFRLQVQYRMHPVLSEFPSNVFYDGSLQNGVTENDRHMTGVDWHWPKPNKPAFFWHCSGSEELSASGTSFLNRTEAANVEKLVSKLIKAGVQPHQIGVITPYEGQRSFIVNYMHTQGTLNSKLYENVEIASVDAFQGREKDYIIVTCVRSNDILGIGFLSDPRRLNVAITRAKYGLVLVGNAKVLARHDLWHELINHYKSKEMLYEGPINALKPLNLALPKATIRTKNNIAGNANRFGIKRMQYTFNEYKSNDPSQPRLPPTYSNSQNLLSMSKLAQTFNKNVPIPAHMMDPNVYAAARNQKDRRRGDQRRPPPQAEAAMDLSQGMMSQQSQQYPPQGASSQSQYLLDGASSLSGWSQSQTTTTTTRHHHHRQNRNSQQQMSQDMDDIQQKMDDLLFSQDC” here?
Answer: not soluble

Question: For “MDEEEEISVVQDMAYDYSGKRLATVSIDREICIWNKKDDWQRTYQWKAHEGPLFGVSWAHPCFGNILATGSYDKRVIIWEEPEASSSYSSSSMDKSTKGWTALAHLVDARDEVRQVQFAPPHLGLLLASGSADGYVRIYTCIDEADLHQWPLLTELDMDSPVVGMSWNPSVDSIPLIVVASHKDCRVWSMDNDTRRWTDWHLFRTSESDTADLSAVAWAPHVGRSFERIALGCEDGSILLFQFPRIQQGNKTNGHEMQPICRLNHGNERIVRLQWNMVGSILASSASDRMVRLWKALPQDGTRWNCFDVVHLNE”, which “soluble on expression in E. coli” value is on record?
Answer: not soluble

Question: For “MDEHFIKIHKWLYPVSWIYGAVVTVRNKLFDWGFLRSKSFGVPVICIGNLSVGGTGKTPHTEYLIKLLRDNYHVAVLSRGYKRHSRGYVLATPQSTARSIGDEPYQMHTKFPSVTLAVDENRCHGIEQLLSIKEPSIEVVLLDDAFQHRYVKPGLSILLTDYHRLFCDDTLLPAGRLRESVNGKNRAQIVIVTKCPQDIKPIDYNIITKRLNLYPYQQLYFSSFRYGNLQPVFPSANSEIDSTVNELPLSALTNTDILLVTGIASPAPILEELKMYTDQIDSLSFDDHHHFSHRDIQQIKERFGKLKGEHKLIVTTEKDATRLIHHPVLSEELKPFIYALPIEIEILQNQQDKFNQHIIGYVRENTRNSSFSERENAHQSLEHHHHHH”, which “soluble on expression in E. coli” value is on record?
Answer: soluble

Question: For “MDELNRGHAGRTVIRNIEAACEMDPEKRVVISKTDQGSEANMPGHWTGCARPTRDPFVPFVAGRGESVAVRYNSRFGRRFDDQSVNGQPDPSLAYVFLGHELIHASRTLQGTQYRVSRGRPDVDEDSGAAEEELRTVGIGQYEDEYPSENAIRREHGLAPRTSYSGNTGTNLREPPERNSQYTEARLRSLNARRWSDM”, which “soluble on expression in E. coli” value is on record?
Answer: not soluble

Question: With “MDELNSPLGERAQGASLAHVVWSDPQWLERYPLTFENVLTYFSRSPFYDPTCNNELVRMQMHPELQGEMLYYTQREEELLLGMQGVEYVPLCSSDAHELFIIRKQVRRSADEVHVTNLYYILYGQVYEAPAFSTVLLVRLRQSADFLVRSLGLLRQWLSKKEYGEPGATGHGHEDTLLLQLLRKAQQRNRQL” as the sequence, how does the “soluble on expression in E. coli” value read?
Answer: not soluble

Question: Which “soluble on expression in E. coli” value does the source give for “MDEVDVALIGAGIMSATLGAMLRTLEPGWTQVMFERLDAPAQESSSPWNNAGTGHSALCELNYTPEVKGRVQIDKALGVNEKFQISRQFWSYQVNEGVLPSPREWINPVPHVSFGRGEDQVAYLKKRYEALAAHPLFPNMQYTDDRAKFAEMLPLMADGRSEFEKVAISWTDAGTDINYGSQTRQFLKAAEKNGTEIRYGHEVKDIKRDGAKWRVTVKNVHTGDTQVIRANFVFVGAGGMALPLLQKTGLEHHHHHH” here?
Answer: soluble

Question: Which “soluble on expression in E. coli” value does the source give for “MDFECQFVCELKELAPVPALLIRTQTTMSELGSLFEAGYHDILQLLAGQGKSPSGPPFARYFGMSAGTFEVEFGFPVEGGVEGSGRVVTGLTPSGKAASSLYIGPYGEIEAVYDALMKWVDDNGFDLSGEAYEIYLDNPAETAPDQLRTRVSLMLHESLEHHHHHH” here?
Answer: soluble

Question: Which “soluble on expression in E. coli” value does the source give for “MDFGKTNSKLFVFGQDGGILDERRTQPKWTHQDGFSVLDEAALHDWALGAVTEAVENHGVEGVMVSGHGCTFALVDDAALTHPILDYEQEPPAEIAARIDHRIPDFAETFSPRLPLGFNYGRHMLWVQEVDPDAFAAAKSILGYPQYWSWRLGGRPVSEVSYLGCHSHLWAPRSQDFSSLVDAEGWRGQMPAFARAGAVIGERRLGSSSRPIAIHNGVHDSNAALHAYRRQELGLEHHHHHH” here?
Answer: soluble

Question: Which “soluble on expression in E. coli” value does the source give for “MDGAGAEEVLAPLRLAVRQQGDLVRKLKEDKAPQVDVDKAVAELKARKRVLEAKELALQPKDDIVDRAKMEDTLKRRFFYDQAFAIYGGVSGLYDFGPVGCALKNNIIQTWRQHFIQEEQILEIDCTMLTPEPVLKTSGHVDKFADFMVKDVKNGECFRADHLLKAHLQKLMSDKKCSVEKKSEMESVLAQLDNYGQQELADLFVNYNVKSPITGNDLSPPVSFNLMFKTFIGPGGNMPGYLRPETAQGIFLNFKRLLEFNQGKLPFAAAQIGNSFRNEISPRSGLIRVREFTMAEIEHFVDPSEKDHPKFQNVADLHLYLYSAKAQVSGQSARKMRLGDAVEQGVINNTVLGYFIGRIYLYLTKVGISPDKLRFRQHMENEMAHYACDCWDAESKTSYGWIEIVGCADRSCYDLSCHARATKVPLVAEKPLKEPKTVNVVQFEPSKGAIGKAYKKDAKLVMEYLAICDECYITEMEMLLNEKGEFTIETEGKTFQLTKDMINVKRFQKTLYVEEVVPNVIEPSFGLGRIMYTVFEHTFHVREGDEQRTFFSFPAVVAPFKCSVLPLSQNQEFMPFVKELSEALTRHGVSHKVDDSSGSIGRRYARTDEIGVAFGVTIDFDTVNKTPHTATLRDRDSMRQIRAEISELPSIVQDLANGNITWADVEARYPLFEGQETGKKETIEELEHHHHHH” here?
Answer: soluble

Question: For “MDGSMGEGGGQILRTAVALAAVLGRPLRIVNIRAKRRPPGLRPQHLTAVRAVAAISGGRLRGAEVGSTSLEFTPGRVRGGRYRFDVGTAGSVALIIQALAPLLAYSDSPVEVELTGGTDVPMAPTIDYMREVFASILAMLGYEIEIRVLRRGHYPRGGGRVVVRVPDPPGGFRARSFVERGPLKGVYVRSHAVKLPGSIAERQARSAASLVRERLGVDPIVEIEAYKPHRDPHLGPGTGVLVWAVFGETVMGGDSIGKKGKPAEVVGREAAESLLEDMATGAALDRHMSDMAPVYLALAGGVSTVFGARLTGHASTILELLRIMVDGFEYRILEGGLERPFKAELRGAGVSPR”, which “soluble on expression in E. coli” value is on record?
Answer: soluble

Question: With “MDHGVVLLSDDQGLQWRQASSVPLSTPLTGVSFVDAKRGWAVGHWGAILITTDGGESWQVQRLATEEDRPLFAVHFFNARQGVAVGLWSLVLTTEDGGQTWSEQPLQAPPGAKRADLNLMGLFADSRGTLYATAEHGQVLHSEDQGKNWRYLDTGYEGTLWAGAVLADGRLLLGGQRGTLLQGSADGKGFHRVPTQSKGSVTCVAVAGSRVLAVGLDGLSVQSSDGGHSFQETQTADGLSLTAALFNAEGVPVLFSRRGVMPYQELEHHHHHH” as the sequence, how does the “soluble on expression in E. coli” value read?
Answer: not soluble

Question: Which “soluble on expression in E. coli” value does the source give for “MDIDECESGAHQCSEAQTCVNFHGGYRCVDTNRCVEPYIQVSENRCLCPASNPLCRE” here?
Answer: soluble

Question: For “MDINGGGATLPQALYQTSGVLTAGFAQYIGVGSGNGKAAFLNNDYTKFQAGVTNKNVHWAGSDSKLSATELSTYASAKQPTWGKLIQVPSVGTSVAIPFNKSGSAAVNLSVQELCGVFSGRINTWDGISGSGRTGPIVVVYRSESSGTTELFTRFLNAKCNAETGNFAVTTTFGTSFSGGLPAGAVAATGSQGVMTALAAGDGRITYMSPDFAAPTLAGLDDATKVARVGKNVATNTQGVSPAAANVSAAIGAVPVPAAADRSNPDAWVPVFGPDNTAGVQPYPTSGYPILGFTNLIFSQCYADATQTTQVRDFFTKHYGASNNNDAAITANAFVPLPTAWKATVRASFLTASNALSIGNTNVCNGIGRPLLEAAHHHHHH”, which “soluble on expression in E. coli” value is on record?
Answer: soluble

Question: Which “soluble on expression in E. coli” value does the source give for “MDIRKEFEHLQYFFDSYYNQTFYNAQLEEQFLRFLADEPEWVVRALKLEVEKLERIHHRRDTETWAKIEELVHENSMRYFSFEDGKTFIKVASLLLKDID” here?
Answer: not soluble

Question: With “MDKRYLESDVFEAFQERLSYLFNEFDYIYVSFSGGKDSGLLLNLVLDYKRKNNISSKIGVFHQDFEAQYSLTTEYVEKVFEDNIEDIEPYWVCLPMATRTAVGNYEMYWYPWDDEKEELWVREMPVKEYIINQKNNPFTYYKYKMRQESLAKQFGRWIRDIHEGAKVVCLLGTRAAESLQRYCSIVNKQHGYKGKCWITKEFKNVWTASPIYDWEIEDIWLAHYKFDYDYNKIYDLFYK” as the sequence, how does the “soluble on expression in E. coli” value read?
Answer: not soluble

Question: For “MDKTTHDKGLEIRKAVLGEAYVENALKNADDFNQPFQELVTEYCWGAIWGRDGLPKKTRSMLNLAMIAILNRPHELRAHIKGALTNGVTKDEIREIFMQVACYAGIPAGVDSFRIAREVFAELDKA”, which “soluble on expression in E. coli” value is on record?
Answer: not soluble

Question: With “MDLFADAPLTLPDADLRYLPHWLDAPLASAWLLRLEQETPWEQPILRIHGEEHPTPRLVAWYGDPDAAYRYSGQVHRPLPWTALLGEIRERVEREVGQRVNGVLLNYYRDGQDSMGWHSDDEPELRRDPLVASLSLGGSRRFDLRRKGQTRIAHSLELTHGSLLVMRGATQHHWQHQVAKTRRSCMPRLNLTFRLVYPQPLEHHHHHH” as the sequence, how does the “soluble on expression in E. coli” value read?
Answer: soluble

Question: For “MDLLVVVPHPDDESFGAGGALLLAKEAGLKTGVLTLTRGEAGRTLGLCPPKELPQVRVEELKRAAAVLQVDYLEVLDYPNALPEGAQGERGPATGRGLADHPEAVEAIRTRLLRLRPRFVLTFPPDGINGHPDHVAASRYAREAAQGLAQVVYLVRPDGPWPVTHRLRLPERVLARKLQAIAQHKTQALSVLKFLEMFPERLWTETFHLPGASGLREGPWW”, which “soluble on expression in E. coli” value is on record?
Answer: soluble

Question: With “MDLSPLDVRYQEFPRAFRGYHRGAVREYLARVAEAMEALIRENEVLKERLRALEEENARLKEAEGELKRAVVAAERIARELKAQAEREAELLRKEAQAAKERLLQEAAQELKRLRAEIERARQEKALFLGQVRALFEGYLEALKRLEKTP” as the sequence, how does the “soluble on expression in E. coli” value read?
Answer: soluble
